The record followed here is patent US20220259593A1, “CONTROL OF MAMMALIAN GENE DOSAGE USING CRISPR” (The Regents of the University of California, priority 2019, published 2022).

Data set [1] concerns K562 CRISPRi cells. Briefly: Perturb-seq pooled growth measurement (sgRNA counts, growth phenotype γ, relative activity). Format: cell-based, human. The following applies: sequencing read counts; for Perturb-seq pooled growth sgRNA counts, d5: 5 days of growth (day seven after transduction); for Perturb-seq pooled growth sgRNA counts, d10: 10 days of growth (day twelve after transduction); for Perturb-seq pooled growth sgRNA counts, T0: T0 = day two after transduction. The text has this: Finally, we sought to use intermediate-activity sgRNAs to explore relationships between expression levels of various genes and the resulting cellular phenotypes. To simultaneously measure gene expression levels and obtain rich phenotypes for a variety of sgRNA series, we used Perturb-seq, an experimental strategy that enables matched capture of the transcriptome and the identity of an expressed sgRNA for each individual cell in pools of cells (27, 31-33) (FIG. 12A). […] In addition to the single-cell transcriptomes, we measured bulk growth phenotypes conferred by sgRNAs in these cells.
To measure the growth rate defects conferred by each sgRNA for comparison with the transcriptional phenotypes, samples of 500,000 transduced cells were taken from the same transduced cell population used in the Perturb-seq experiment on days two, seven, and twelve after transduction. Genomic DNA was extracted using the Nucleospin Blood kit (Macherey-Nagel) and sgRNA amplicons were prepared as described previously and above (19), albeit with no genomic DNA digestion or gel purification, and sequenced on HiSeq 4000 as described above for the other screens. Growth phenotypes were calculated by comparing normalized sgRNA abundances at day seven and twelve to those at day two, as described above. […] Relative sgRNA activities measured at day seven (five days of growth) were used to assign sgRNA activities in further analysis.

Data set [2] concerns K562 CRISPRi cells. Description: Constant region variant library pooled growth screen, K562. The following applies: sgRNA constant region variants. The class given is cell-based, human. Summed up:
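Cells were selected with puromycin for 2 days and then kept in RPMI-1640 spinner cultures, with duplicates handled separately. Targeting sequences comprised 3 sgRNAs per essential gene for 10 genes plus six non-targeting controls. Activities were normalized against pairing with the unmodified scaffold.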

The mark [3] stands for this setting: activity relative to the original, un-modified constant region cr995.
Setting [4] is: activity relative to the un-modified constant region cr995.

Where a chain is given by its changes, count along the chain named.

Regarding “ALDOA_+_30077139.23-P1P2_00: sgRNA targeting ALDOA, GGTCACCAGGACCCCTTCTG, SEQ ID NO: 156 (listed as DNA, chemistry not fully specified)”, in the data set on K562 CRISPRi cells [1], the “Perturb-seq pooled growth sgRNA counts, d5” value was 4056; the “Perturb-seq pooled growth sgRNA counts, d10” value was 2781; the “Perturb-seq pooled growth sgRNA counts, T0” value was 5280.

“ALDOA_+_30077139.23-P1P2_06: sgRNA targeting ALDOA, GGTCACCAGGATCCCTTCTG, SEQ ID NO: 157 (listed as DNA, chemistry not fully specified)”: in the data set with K562 CRISPRi cells [1], the “Perturb-seq pooled growth sgRNA counts, d5” value came to 4831; the “Perturb-seq pooled growth sgRNA counts, d10” value is reported as 3500; the “Perturb-seq pooled growth sgRNA counts, T0” value is reported as 6015.

For “ALDOA_+_30077139.23-P1P2_07: sgRNA targeting ALDOA, GGTCACCAGGCCCCCTTCTG, SEQ ID NO: 158 (listed as DNA, chemistry not fully specified)”, in the data set with K562 CRISPRi cells [1], the “Perturb-seq pooled growth sgRNA counts, d5” value was found to be 4284; the “Perturb-seq pooled growth sgRNA counts, d10” value is 3028; the “Perturb-seq pooled growth sgRNA counts, T0” value worked out at 4830.

B1: cr327 (nucleic acid)
guide: GTTTAAGAGCTAAGCTGGAAACAGCATAGCAAGTTTAAATAAGGCTAGTCCGTTATCAACTTGCAAAAGTGGCACCGAGTCGGTGCT
modifications: listed as DNA, chemistry not fully specified
As for B1, in the data set with K562 CRISPRi cells [2] (setting [3]), the Mean relative activity worked out at 1.066.

B2: cr831 (nucleic acid)
guide: B1 guide with C60T, C64A, G69A
modifications: listed as DNA, chemistry not fully specified
In the case of B2, in the data set on K562 CRISPRi cells [2] (setting [4]), the Mean relative activity was 0.962.

B3: cr994 (nucleic acid)
guide: B1 guide with C64A, G79T
modifications: listed as DNA, chemistry not fully specified
With B3, the Mean relative activity with K562 CRISPRi cells [2] (setting [4]) was 0.9671.

B4: cr800 (nucleic acid)
guide: B1 guide with C45T, G48A, A59T, C64A, T70A, G72A, C86T
modifications: listed as DNA, chemistry not fully specified
B4 had a Mean relative activity in the data set with K562 CRISPRi cells [2] (setting [4]) of 0.9728.

B5: cr147 (nucleic acid)
guide: B1 guide with G63A, C64T, G79C
modifications: listed as DNA, chemistry not fully specified
Molecule B5 displayed a Mean relative activity in the data set with K562 CRISPRi cells [2] (setting [4]) of 0.9753.

B6: cr161 (nucleic acid)
guide: B1 guide with C64A, A66C, G79C
modifications: listed as DNA, chemistry not fully specified
With B6, the Mean relative activity with K562 CRISPRi cells [2] (setting [4]) was 0.9671.

B7: cr181 (nucleic acid)
guide: B1 guide with C45T, G48A, C60T, C64A, G69A, A74G, T84C
modifications: listed as DNA, chemistry not fully specified
Consider B7, for which, in the data set with K562 CRISPRi cells [2] (setting [4]), the Mean relative activity came out at 0.9506.

B8: cr646 (nucleic acid)
guide: B1 guide with C60A, C64A, G69T, A74T, T84A
modifications: listed as DNA, chemistry not fully specified
For the molecule B8, the Mean relative activity in the data set on K562 CRISPRi cells [2] (setting [4]) is given as 0.962.

B9: cr938 (nucleic acid)
guide: B1 guide with A47G, C64A
modifications: listed as DNA, chemistry not fully specified
The molecule B9 showed a Mean relative activity in the data set with K562 CRISPRi cells [2] (setting [4]) of 0.9596.

B10: cr159 (nucleic acid)
guide: B1 guide with A31T, C64A
modifications: listed as DNA, chemistry not fully specified
In the data set with K562 CRISPRi cells [2] (setting [4]), B10 showed a Mean relative activity of 0.9739.

B11: cr102 (nucleic acid)
guide: B1 guide with C60T, C64A, G69A, C73A, G85T
modifications: listed as DNA, chemistry not fully specified
The molecule B11 gave a Mean relative activity in the data set on K562 CRISPRi cells [2] (setting [4]) of 0.9651.

B12: cr131 (nucleic acid)
guide: B1 guide with C64A, A65G, C76A, G82T
modifications: chemistry not given here
Turning to B12, in the data set with K562 CRISPRi cells [2] (setting [4]), the Mean relative activity is 0.96.

B13: cr416 (nucleic acid)
guide: B1 guide with C64A, A74G, G77A, C81T, T84C
modifications: listed as DNA, chemistry not fully specified
B13 came in with a Mean relative activity in the data set with K562 CRISPRi cells [2] (setting [4]) of 0.9574.

B14: cr644 (nucleic acid)
guide: B1 guide with A28T, C64A
modifications: listed as DNA, chemistry not fully specified
As for B14, the Mean relative activity in the data set with K562 CRISPRi cells [2] (setting [4]) came to 0.9694.

B15: cr825 (nucleic acid)
guide: B1 guide with C64A, A74T, C75G, G83C, T84A
modifications: listed as DNA, chemistry not fully specified
In the case of B15, the Mean relative activity with K562 CRISPRi cells [2] (setting [4]) is reported as 0.9691.

B16: cr944 (nucleic acid)
guide: B1 guide with T62C, C64A, A67G, C73T, G77A, C81T, G85A
modifications: listed as DNA, chemistry not fully specified
With B16, the Mean relative activity in the data set with K562 CRISPRi cells [2] (setting [3]) was found to be 1.065.

B17: cr397 (nucleic acid)
guide: B1 guide with C60A, C64A, G69T
modifications: listed as DNA, chemistry not fully specified
In the data set on K562 CRISPRi cells [2] (setting [4]), B17 yielded a Mean relative activity of 0.9508.

B18: cr299 (nucleic acid)
guide: B1 guide with C64G, A65G
modifications: listed as DNA, chemistry not fully specified
With B18, the Mean relative activity in the data set on K562 CRISPRi cells [2] (setting [4]) amounted to 0.9718.

B19: cr205 (nucleic acid)
guide: B1 guide with C60T, C64A, G69A, C73G, G85C
modifications: listed as DNA, chemistry not fully specified
Turning to B19, the Mean relative activity in the data set with K562 CRISPRi cells [2] (setting [4]) is given as 0.9515.

B20: cr359 (nucleic acid)
guide: B1 guide with A28C, C64A
modifications: listed as DNA, chemistry not fully specified
Consider B20, for which the Mean relative activity in the data set on K562 CRISPRi cells [2] (setting [4]) was found to be 0.9746.

B21: cr267 (nucleic acid)
guide: B1 guide with G18C, C64A
modifications: listed as DNA, chemistry not fully specified
Take B21: in the data set on K562 CRISPRi cells [2] (setting [4]), the Mean relative activity came to 0.9552.

B22: cr264 (nucleic acid)
guide: B1 guide with C64A, A68T
modifications: listed as DNA, chemistry not fully specified
As for B22, in the data set on K562 CRISPRi cells [2] (setting [4]), the Mean relative activity was 0.9513.

B23: cr372 (nucleic acid)
guide: B1 guide with T46G, C64A
modifications: listed as DNA, chemistry not fully specified
With B23, in the data set with K562 CRISPRi cells [2] (setting [4]), the Mean relative activity is on record as 0.9545.

B24: cr360 (nucleic acid)
guide: B1 guide with C64A, C75T, G83A
modifications: listed as DNA, chemistry not fully specified
In the case of B24, the Mean relative activity with K562 CRISPRi cells [2] (setting [3]) was found to be 1.066.

B25: cr748 (nucleic acid)
guide: B1 guide with T62C, C64A, A65G, A67G
modifications: listed as DNA, chemistry not fully specified
In the data set on K562 CRISPRi cells [2] (setting [3]), B25 registered a Mean relative activity of 1.146.

B26: cr306 (nucleic acid)
guide: B1 guide with A47T, C64A, A78T
modifications: listed as DNA, chemistry not fully specified
In the case of B26, the Mean relative activity with K562 CRISPRi cells [2] (setting [4]) turned out to be 0.9647.

B27: cr167 (nucleic acid)
guide: B1 guide with T61C, C64A
modifications: listed as DNA, chemistry not fully specified
In the data set on K562 CRISPRi cells [2] (setting [4]), B27 had a Mean relative activity of 0.9545.

B28: cr307 (nucleic acid)
guide: B1 guide with C64A, G77A, C81T
modifications: listed as DNA, chemistry not fully specified
Turning to B28, the Mean relative activity in the data set with K562 CRISPRi cells [2] (setting [4]) is recorded as 0.9746.

B29: cr835 (nucleic acid)
guide: B1 guide with C64A, T84C
modifications: listed as DNA, chemistry not fully specified
In the data set with K562 CRISPRi cells [2] (setting [4]), B29 registered a Mean relative activity of 0.9515.

B30: cr707 (nucleic acid)
guide: B1 guide with C64A, A78T
modifications: listed as DNA, chemistry not fully specified
Regarding B30, the Mean relative activity with K562 CRISPRi cells [2] (setting [4]) is 0.9632.

B31: cr287 (nucleic acid)
guide: B1 guide with C64A, A65T, G79C
modifications: listed as DNA, chemistry not fully specified
The molecule B31 showed a Mean relative activity in the data set on K562 CRISPRi cells [2] (setting [4]) of 0.9686.
